# Assay results reported in patent publication US20170096478A1, “THERAPEUTIC AGENT FOR INFLAMMATORY DISEASE” (Josai University Corporation, priority 2012, published 2017).
# B1: SSV mAb: monoclonal antibody (IgG1) produced by Mouse-Mouse hybridoma SSV-C 93-3 (NITE BP-972), raised against peptide … (SEQ ID NO:1)-KLH conjugate (antibody, V domains shown)
# VH: EIQLQQSGAELVKPGASVKISCKASGYSFTGYNMNWVKQSHGKSLEWIGNINPYYGSTSYNQKFKGKATLTVDKSSSTAYMQLNSLTSEDSAVYYCARSPYYSNYWRYFDYWGQGTTLTVSS
# VL: QIVLSQSPAILSASPGEKVTMTCRASSSVSYMHWYQQKPGSSPKPWIYATSNLASGVPARFSGSGSGTSYSLTISRVEAEDAATYYCQQWSSNPWTFGGGTKLEIK
# What was measured:
# [1] = system: CD3 positive T cells; assay: Reactivity of the monoclonal antibody with T cells by flow cytometry (FACS); type: cell-based, C57BL/6 mouse; settings: unstimulated T cells, 16G9 mAb compared with SSV mAb
# Method: Using the following approach, spleen was removed from a C57BL/6 mouse (5 weeks old, female, CHARLES RIVER LABORATORIES JAPAN, INC.) to prepare whole splenic cells.
# First, in a 5 ml culture dish (BD Bioscience FALCON 351007) into which 5 ml RPMI 1640 culture medium (Sigma-Aldrich, R-8758) was transferred, spleen was disentangled well with scissors for dissection and forceps to suspend the splenic cells, which were then transferred to a 15 ml centrifuge tube (BD Bioscience FALCON 352096). Then, the 5 ml dish was washed several times with phosphate-buffered saline (PBS, Invitrogen, 20012-027), and these were also added to the foregoing cell suspension and allowed to stand, and then the supernatant was collected in another 15 ml centrifuge tube. In addition, 5 ml RPMI 1640 culture medium was also added to the residual insoluble spleen tissue again and allowed to stand, and then only the supernatant was collected, which was combined with the above-mentioned cell suspension to perform centrifugation at 1,500 rpm for 5 min. To the collected cells, added was 2 ml lysis buffer (150 mM NH4Cl/15 mM NaHCO3/0.1 mM EDTA-Na2, pH 7.3) and hemolyzed by tapping, and then 10 ml PBS was added. After washed 3 times by centrifugation at 1,500 rpm for 5 min, whole splenic cells were obtained. […]
# The reactivity of the above unstimulated with 16G9 mAb or SSV mAb was analyzed by flow cytometry (FACS). […]
# [2] = system: lipopolysaccharide (LPS)-induced lethal sepsis; assay: Test Example 8-1: survival in LPS-induced lethal sepsis; type: in vivo, BALB/c mice
# Method: BALB/c mice (bodyweight of 20 g to 30 g when starting the experiments, n=10) were raised in a plastic cage under SPF and thermo-hydrostat (22±1° C., 55±5%) conditions under 12-hour light-dark cycle. Foods and water were supplied ad libitum. Then, by intraperitoneally administering LPS to the mice at a dose of 40 mg/kg, lipopolysaccharide (LPS)-induced lethal sepsis as an inflammatory disease was induced in the same manner as Test Example 7. SSV mAb dissolved in physiological saline was intraperitoneally administered totally 3 times, i.e., at 30 minutes before, 6 hours after and 12 hours after the intraperitoneal administration of LPS, in an amount of 100 μg/dose in terms of the amount of SSV mAb. The survival of the animals thereafter was tested. To the control group, IgG (SIGMA) dissolved in physiological saline was administered in place of SSV mAb in the same manner.
# [3] = system: histone H3; assay: ELISA affinity for histone H3; type: binding; settings: absorbance at 405 nm, 5 μg/mL antibody, compared with histone H1
# Method: The Affinities between histone H1 or core histone and SSVmAb were determined by ELISA.
# A 96 well microplate was coated with histone H1, H2A, H2B, H3 or H4. Each histone used was dissolved in 100 mM sodium carbonate buffer (pH 9.3). The plate was washed with PBS-tween 20 (0.05%), and blocked with 3% skim milk and 1% BSA for 1 hour. To each well, 5 μg/mL SSVmAb was added, and incubated for 1 hour. Bound SSVmAb was detected using peroxidase (HRP) conjugated anti mouse IgG1 Ab (SIGMA), and incubated for 1 hour. Bound SSVmAb was detected using the ABTS [2,2′-azino-bis(3-ethylbenzothiazoline-sulfonic acid)] substrate solution, and absorbance at 405 nm was measured using Multiskan Ascent (Thermo Fisher Scientific Inc., Waltham, Mass.).
# After the end of the tests, binding assays of SSV mAb with histone H1, histone H3 and histone H4 were carried out by ELISA in the same manner as Test Example 2.
molecule,measurement,setting,value
B1,reactivity with CD3 positive T cells,[1],comparative reactivity
same,survival rate,"[2]; 24 hours after administration of LPS 40 mg/kg i.p., 100 μg/dose i.p. 3 times",70%
same,survival rate relative to that of the control group,"[2]; 70 hours after administration of LPS, p<0.05",about 3.5 times
same,affinity for histone H3 (ELISA),[3],binding capacity
same,affinity for histone H3 (ELISA),[3]; listed as SSVmAb,higher than the affinity for histone H1
